Results: patent US20170022269A1 (AbbVie / Abbott, published 2017)
Where a chain is given by its changes, count along the chain named.

T1: Aβ(12-42) globulomer (human)
T1 construct: also called truncated Aβ(12-42) globulomer
T1 peptide: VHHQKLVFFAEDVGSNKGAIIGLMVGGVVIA

T2: Aβ(20-42) globulomer (human)
T2 construct: also called truncated Aβ(20-42) globulomer; Aβ(20-42) globular oligomer
T2 peptide: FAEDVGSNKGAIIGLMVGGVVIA

B1: monoclonal antibody 7C6 (antibody, V domains shown)
VH: EVKLVESGGGLVKPGGSLKLSCAASGFTFSSYAMSWVRQTPAKRLEWVASIHNRGTIFYLDSVKGRFTISRDNVRNTLYLQMSSLRSEDTAIYYCTRGRSNSYAMDYWGQGTSVTVSS
VL: DVLVTQSPLSLPVRLGDQASISCRSTQTLVHRNGDTYLEWYLQKPGQSPKSLIYKVSNRFSGVPDRFSGSGSGTDFTLKISRVEAEDLGVYYCFQGSHVPYTFGGGTKLEIKR
notes: Mouse monoclonal antibody from hybridoma; also called ML13-7C6.1D4.4A9.5G8; hybridoma ATCC PTA-7240
B2: monoclonal antibody 7E5 (antibody, V domains shown)
VH: EVKLVESGGGLVQPGGSRKLSCAASGFTFSDYEMVWVRQAPGEGLEWVAYISSGSRTIHYADTVKGRFTISRDNPKNTLFLQMSSLRSEDTAMYYCARTLLRLHFDYWGQGTILTVSS
VL: DIVMSQSPSSLAVSVGEKVTMSCRSSQSLFYRSNQKNFLAWYQQKPGQSPKLLIYWASTRESGVPDRFTGSGSGTDFTLTISSVKAEDLAVYYCQQYYSYPWTFGGGTKLEIKR
notes: Mouse monoclonal antibody from hybridoma; also called ML15-7E5.5E12; hybridoma ATCC PTA-7809
B3: monoclonal antibody 4B7 (antibody, V domains shown)
VH: B2 VH
VL: B2 VL
notes: Mouse monoclonal antibody from hybridoma; also called ML15-4B7.3A6; hybridoma ATCC PTA-7242
B4: monoclonal antibody 10C1 (antibody, V domains shown)
VH: B2 VH with E43K, S52N, R56G
VL: B2 VL with R24K, R32S, S33R, R60G, Y98F
notes: Mouse monoclonal antibody from hybridoma; also called ML15-10C1.5C6.3H4; hybridoma ATCC PTA-7810
B5: monoclonal antibody 5F7 (antibody, V domains shown)
VH: QVQLKQSGAELVRPGTSVKMSCKASGYTFTTFYIHWVKQRPGQGLEWIGMIGPGSGNTYYNEMFKDKATLTVDTSSSTAYMQLSSLTSEDSAVYFCARAKSARAAWFAYWGQGTLVTVSA
VL: DVLMTQTPLSLPVSLGDQASISCRSSQSVVQSNGNTYLEWYLQKPGQSPKLLIYKVSNRFSGVPDRFSGSGSGTDFTLKISRVEAEDLGVYYCFQGSHVPPTFGGGTKLEIKR
notes: Mouse monoclonal antibody from hybridoma, Protein A purified; also called mAb 5F7; ML15-5F7.5B10
B6: monoclonal antibody 2F2 (antibody, V domains shown)
VH: B5 VH
VL: B5 VL
notes: Mouse monoclonal antibody from hybridoma; also called ML15-2F2.3E12; hybridoma ATCC PTA-7408
B7: monoclonal antibody 6A2 (antibody, V domains shown)
VH: B5 VH with K5Q, K38R, A102H
VL: B5 VL with S61F, G71R
notes: Mouse monoclonal antibody from hybridoma; also called ML15-6A2.4B10; hybridoma ATCC PTA-7409
B8: monoclonal antibody 10F11 (antibody, V domains shown)
VH: QVQLQQSGPELVKPGASVKMSCKASGYTFTSYVMHWVKQRPGQGLEWIGYIYPYNDGTKYNEKFKGKATLTSDKSSSTVYMELSSLTSEDSTVYYCTVEGATWDGYFDVWGTGTTVTVSS
VL: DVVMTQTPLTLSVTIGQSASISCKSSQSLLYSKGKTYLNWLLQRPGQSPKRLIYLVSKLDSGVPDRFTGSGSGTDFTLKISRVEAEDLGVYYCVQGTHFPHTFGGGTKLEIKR
notes: Mouse monoclonal antibody from hybridoma; also called ML15-10F11.3D9; hybridoma ATCC PTA-7239
B9: monoclonal antibody 4D10 (antibody, V domains shown)
VH: QVQLKQSGPSLIQPSQSLSITCTVSGFSLTSYGVHWVRQSPGKGLEWLGVIWRGGRIDYNAAFMSRLSITKDNSKSQVFFKMNSLQADDTAIYYCARNSDVWGTGTTVTVSS
VL: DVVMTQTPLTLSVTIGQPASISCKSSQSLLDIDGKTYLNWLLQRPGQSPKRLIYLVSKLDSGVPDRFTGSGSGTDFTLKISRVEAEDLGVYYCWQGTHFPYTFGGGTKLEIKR
notes: Mouse monoclonal antibody from hybridoma; also called ML13-4D10.3F3; hybridoma ATCC PTA-7405

Biological target: T1, Aβ(12-42) globulomer
Test: dot blot on nitrocellulose
Description: (§1) Dot blot procedure: [0556] 1) 1 μl each of the different Aβ-standards (in their 5 serial dilutions) were dotted onto the nitrocellulose membrane in a distance of approximately 1 cm from each other. [0557] 2) The Aβ-standards dots were allowed to dry on the nitrocellulose membrane on air for at least 10 min at room temperature (RT)(=dot blot) [0558] 3) Blocking: [0559] The dot blot was incubated with 30 ml 5% low fat milk in TBS for 1.5 h at RT. [0560] 4) Washing: [0561] The blocking solution was discarded and the dot blot was incubated under shaking with 20 ml TTBS for 10 min at RT. [0562] 5) Antibody solution I: [0563] The washing buffer was discarded and the dot blot was incubated with antibody solution I for 2 h at RT [0564] 6) Washing: [0565] The antibody solution I was discarded and the dot blot was incubated under shaking with 20 ml TTBS for 10 min at RT. The washing solution was discarded and the dot blot was incubated under shaking with 20 ml TTBS for 10 min at RT. The washing solution was discarded and the dot blot was incubated under shaking with 20 ml TBS for 10 min at RT. [0566] 7) Antibody solution II: [0567] The washing buffer was discarded and the dot blot was incubated with antibody solution II overnight at RT [0568] 8) Washing: [0569] The antibody solution II was discarded and the dot blot was incubated under shaking with 20 ml TTBS for 10 min at RT. The washing solution was discarded and the dot blot was incubated under shaking with 20 ml TTBS for 10 min at RT. The washing solution was discarded and the dot blot was incubated under shaking with 20 ml TBS for 10 min at RT. [0570] 9) Development: [0571] The washing solution was discarded. The dot blot was developed with 10 ml BM Blue POD Substrate for 10 min. The development was stopped by intense washing of the dot blot with H₂O. Quantitative evaluation was done using a densitometric analysis (GS800 densitometer (BioRad) and software package Quantity one, Version […] (BioRad)) of the dot-intensity. […] This threshold value was determined for every dot-blot independently. The calculated value indicates the relation between recognition of Aβ(20-42) globulomer and the respective Aβ form for the antibody given

| binding result | Binder |
| --- | --- |
| no binding | B1 |
| no binding | B2 |
| no binding | B3 |
| no binding | B4 |

Each binder was assayed against T3, sAPPα (Sigma) (UniProt P05067-4 18-612, limits assumed) (assay: dot blot on nitrocellulose).
T3 construct: Bought protein; also called Sigma cat. no; S9564
Description: as §1

T3 sequence (P05067 other isoform, or with tags, fused parts or gaps limits assumed): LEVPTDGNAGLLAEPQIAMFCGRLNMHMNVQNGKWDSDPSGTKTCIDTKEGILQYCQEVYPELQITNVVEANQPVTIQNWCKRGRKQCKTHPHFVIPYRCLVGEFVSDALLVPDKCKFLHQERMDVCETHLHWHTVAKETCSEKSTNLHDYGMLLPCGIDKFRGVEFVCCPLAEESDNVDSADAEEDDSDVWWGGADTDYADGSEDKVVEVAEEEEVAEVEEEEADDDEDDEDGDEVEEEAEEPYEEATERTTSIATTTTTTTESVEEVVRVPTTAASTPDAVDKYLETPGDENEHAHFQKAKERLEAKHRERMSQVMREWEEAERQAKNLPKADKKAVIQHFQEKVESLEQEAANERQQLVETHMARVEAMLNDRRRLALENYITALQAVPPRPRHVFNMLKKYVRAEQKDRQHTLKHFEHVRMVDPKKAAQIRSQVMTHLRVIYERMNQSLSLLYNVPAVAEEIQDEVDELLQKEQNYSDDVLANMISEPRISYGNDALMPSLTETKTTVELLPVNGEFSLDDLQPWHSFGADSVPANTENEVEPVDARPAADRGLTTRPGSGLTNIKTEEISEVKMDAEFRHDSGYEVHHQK

| Binder | binding result |
| --- | --- |
| B5 | no binding (tested: antibody 0.2 µg/ml; first dot 1 pmol) |
| B6 | no binding (tested: antibody 0.2 µg/ml; first dot 1 pmol) |
| B7 | no binding (tested: antibody 0.2 µg/ml; first dot 1 pmol) |
| B8 | no binding (tested: antibody 0.2 µg/ml; first dot 1 pmol) |
| B1 | no binding (tested: antibody 0.2 µg/ml; first dot 1 pmol) |
| B9 | no binding (tested: antibody 0.2 µg/ml; first dot 1 pmol) |
| B2 | no binding (tested: antibody 0.2 µg/ml; first dot 1 pmol) |
| B3 | no binding (tested: antibody 0.2 µg/ml; first dot 1 pmol) |
| B4 | no binding (tested: antibody 0.2 µg/ml; first dot 1 pmol) |

The binders below were run against T4, Aβ(1-40) monomer (human) (assay: dot blot on nitrocellulose).
T4 construct: also called monomeric Aβ(1-40); Aβ(1-40) monomer, 0.1% NH4OH
Description: as §1

T4 sequence (peptide, as listed by the source): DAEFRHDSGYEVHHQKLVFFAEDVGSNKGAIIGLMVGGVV

| binding result | Binder |
| --- | --- |
| no binding | B5 |
| no binding | B6 |
| no binding | B1 |
| no binding | B9 |
| no binding | B2 |
| no binding | B3 |
| no binding | B4 |

These binders were tested against T4, Aβ(1-40) monomer (assay: dot blot densitometry, antibody 0.2 µg/ml; column Aβ(1-40) monomer, 0.1% NaOH).
Description: as §1

| relation between recognition of Aβ(20-42) globulomer and the respective Aβ form | Binder |
| --- | --- |
| > 10000 | B6 |
| > 100000 | B1 |
| > 100000 | B2 |
| > 100000 | B3 |
| > 100000 | B4 |

What follows are binders tested against T3, sAPPα (Sigma) (assay: dot blot densitometry, antibody 0.2 µg/ml; column sAPPα).
Description: as §1

| relation between recognition of Aβ(20-42) globulomer and the respective Aβ form | Binder |
| --- | --- |
| > 100 | B5 |
| > 100 | B6 |
| > 1000 | B7 |
| > 1000 | B8 |
| > 1000 | B1 |
| > 100 | B9 |
| > 1000 | B2 |
| > 1000 | B3 |
| > 1000 | B4 |

Biological target: T1, Aβ(12-42) globulomer
Test: dot blot densitometry, antibody 0.2 µg/ml; column Aβ(12-42) globulomer
Description: as §1

| relation between recognition of Aβ(20-42) globulomer and the respective Aβ form | Binder |
| --- | --- |
| 12 | B8 |
| > 100000 | B1 |
| 29 | B9 |
| > 100000 | B2 |
| > 100000 | B3 |
| > 100000 | B4 |

Biological target: T2, Aβ(20-42) globulomer
Test: dot blot densitometry, antibody 0.2 µg/ml; column Aβ(20-42) globulomer (reference)
Description: as §1

| relation between recognition of Aβ(20-42) globulomer and the respective Aβ form | Binder |
| --- | --- |
| 1 | B5 |
| 1 | B6 |
| 1 | B8 |
| 1 | B1 |
| 1 | B9 |
| 1 | B2 |
| 1 | B3 |
| 1 | B4 |

These binders were tested against T4, Aβ(1-40) monomer (assay: dot blot densitometry, antibody 0.2 µg/ml; column Aβ(1-40) monomer, 0.1% NH4OH).
Description: as §1

| relation between recognition of Aβ(20-42) globulomer and the respective Aβ form | Binder |
| --- | --- |
| > 10000 | B5 |
| > 10000 | B6 |
| > 100000 | B1 |
| > 100000 | B2 |
| > 100000 | B4 |

Biological target: T1, Aβ(12-42) globulomer
Test: dot blot, antibody 0.2 µg/ml
Description: Dot blot procedure: [0556] 1) 1 μl each of the different Aβ-standards (in their 5 serial dilutions) were dotted onto the nitrocellulose membrane in a distance of approximately 1 cm from each other. [0557] 2) The Aβ-standards dots were allowed to dry on the nitrocellulose membrane on air for at least 10 min at room temperature (RT)(=dot blot) [0558] 3) Blocking: [0559] The dot blot was incubated with 30 ml 5% low fat milk in TBS for 1.5 h at RT. [0560] 4) Washing: [0561] The blocking solution was discarded and the dot blot was incubated under shaking with 20 ml TTBS for 10 min at RT. [0562] 5) Antibody solution I: [0563] The washing buffer was discarded and the dot blot was incubated with antibody solution I for 2 h at RT [0564] 6) Washing: [0565] The antibody solution I was discarded and the dot blot was incubated under shaking with 20 ml TTBS for 10 min at RT. The washing solution was discarded and the dot blot was incubated under shaking with 20 ml TTBS for 10 min at RT. […] Quantitative evaluation was done using a densitometric analysis (GS800 densitometer (BioRad) and software package Quantity one, Version […] (BioRad)) of the dot-intensity. […] This threshold value was determined for every dot-blot independently. The calculated value indicates the relation between recognition of Aβ(20-42) globulomer and the respective Aβ form for the antibody given

| binding result | Binder |
| --- | --- |
| binds | B5 |
| binds | B6 |
